As usually defined, the stoichiometry N is a count of units in the complex or per binding partner. As usually defined, the Kd is the equilibrium constant for the complex coming apart. The low end stands for tighter binding, the high end for weaker binding.

Assay [1] concerns the target human INF2-nonCAAX full-length, untagged (human). The assay is described as follows: AUC.
The target in assay [2] is co-expressed CAP1-GFP/CAP2-GFP (human) (UniProt Q01518). The assay is described as follows: co-purification.
Assay [3] has as its target human CAP2 with C-terminal GFP and Strep-tag II (human) (UniProt P40123). The assay is described as follows: co-purification.
For assay [4], the target named is human CAP1 with C-terminal GFP and Strep-tag II (human) (UniProt Q01518). As to the kind of experiment: co-purification.
Assay [5] has as its target CAP in the brain inhibitory fraction (CAP1 and CAP2 of mouse brain) (mouse (endogenous in brain)).
Assay [6] addresses GFP-Strep-tagged human INF2-nonCAAX full-length, purified (human).
Assay [7] addresses INF2-Cterm labeled with tetramethylrhodamine (human) (UniProt Q27J81). The assay is described as follows: fluorescence polarisation.

Chain of untagged CAP co-purifying with CAP-GFP (likely endogenous HEK293 CAP) (Q01518 whole entry): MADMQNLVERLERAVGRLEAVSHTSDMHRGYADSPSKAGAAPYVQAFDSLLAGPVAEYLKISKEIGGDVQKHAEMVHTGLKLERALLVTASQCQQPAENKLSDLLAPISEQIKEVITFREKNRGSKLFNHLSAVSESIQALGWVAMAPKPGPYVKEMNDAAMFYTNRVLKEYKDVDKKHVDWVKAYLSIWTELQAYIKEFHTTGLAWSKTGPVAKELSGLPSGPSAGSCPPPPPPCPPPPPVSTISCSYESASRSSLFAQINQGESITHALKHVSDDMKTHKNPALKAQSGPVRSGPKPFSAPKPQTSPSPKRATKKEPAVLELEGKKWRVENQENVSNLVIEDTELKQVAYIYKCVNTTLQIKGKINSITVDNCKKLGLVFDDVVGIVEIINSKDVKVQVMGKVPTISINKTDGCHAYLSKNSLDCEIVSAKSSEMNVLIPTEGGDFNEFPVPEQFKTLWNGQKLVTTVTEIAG
Chain of human CAP1 with C-terminal GFP and Strep-tag II (human) (Q01518 whole entry): as above
Chain of co-expressed CAP1-GFP/CAP2-GFP (human) (Q01518 whole entry, chain 1 of 2): as the sequence (Q01518 whole entry) above
Chain of co-expressed CAP1-GFP/CAP2-GFP (human) (P40123 whole entry, chain 2 of 2, further chain): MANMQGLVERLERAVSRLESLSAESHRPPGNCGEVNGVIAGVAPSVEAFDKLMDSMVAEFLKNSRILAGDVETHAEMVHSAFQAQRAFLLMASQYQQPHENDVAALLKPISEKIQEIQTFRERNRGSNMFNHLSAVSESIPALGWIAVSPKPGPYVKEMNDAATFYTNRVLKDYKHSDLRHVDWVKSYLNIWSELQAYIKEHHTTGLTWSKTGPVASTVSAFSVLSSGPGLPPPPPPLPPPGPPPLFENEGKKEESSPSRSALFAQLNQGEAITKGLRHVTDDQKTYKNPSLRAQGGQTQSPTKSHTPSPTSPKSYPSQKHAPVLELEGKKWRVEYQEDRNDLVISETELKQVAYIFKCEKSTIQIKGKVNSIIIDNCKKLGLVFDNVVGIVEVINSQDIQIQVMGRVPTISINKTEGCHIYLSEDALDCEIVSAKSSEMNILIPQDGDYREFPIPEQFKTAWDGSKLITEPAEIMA
Chain of human CAP2 with C-terminal GFP and Strep-tag II (human) (P40123 whole entry): as the sequence (P40123 whole entry, chain 2 of 2, further chain) above

As to “human INF2-nonCAAX full-length, untagged (natural protein)”, the stoichiometry N in assay [1] amounted to 2.

Consider “untagged CAP co-purifying with CAP-GFP (likely endogenous HEK293 CAP) (from UniProt Q01518 1-475) (natural protein)”, for which the mole percentage compared to CAP-GFP in assay [2] turned out to be 16.5%; in assay [3] it was 16.3%; in assay [4], 16.8%.

In the case of “mouse brain actin (from UniProt P60710 1-375) (natural protein)”, the mole percentage compared to CAP in assay [5] worked out at 107%.

For “actin of HEK293 cells co-purifying with recombinant CAP (from UniProt P60709 1-375) (natural protein)”, the mole percentage compared to CAP-GFP in assay [2] turned out to be 90.5%; in assay [3], 88.1%; in assay [4], 82.5%.

As to “untagged CAP2/actin complex purified from tubastatin A-treated 293 cells (from UniProt P40123;P60709)”, in assay [6], the IC50 of inhibition of INF2-mediated actin polymerization, pyrene-actin assay came out at 0.263 µM. For the same substance, the Kd in assay [7] was found to be 1.82 µM.

For the origin of these results see PMC6501848.
